{"source": "paper PMC6557989", "key": {"[1]": {"target": "Protein H (Streptococcus pyogenes (strain AP1))", "assay": "MST; Monolith NT.115; Alexa-488-labelled Protein H constant at 0.5 nM, C4BP at 16 concentrations; 50 mM Tris-HCl pH 7.4, 150 mM NaCl, 10 mM MgCl2, 0.05% Tween-20; 37°C"}, "[2]": {"target": "Protein H on the surface of Streptococcus pyogenes AP1 (Streptococcus pyogenes (endogenous in strain AP1))"}, "[3]": {"target": "C4b-binding protein (C4BP), human, purified from plasma (human) (UniProt P04003)", "sequence (P04003 49-597, chain 1 of 2)": "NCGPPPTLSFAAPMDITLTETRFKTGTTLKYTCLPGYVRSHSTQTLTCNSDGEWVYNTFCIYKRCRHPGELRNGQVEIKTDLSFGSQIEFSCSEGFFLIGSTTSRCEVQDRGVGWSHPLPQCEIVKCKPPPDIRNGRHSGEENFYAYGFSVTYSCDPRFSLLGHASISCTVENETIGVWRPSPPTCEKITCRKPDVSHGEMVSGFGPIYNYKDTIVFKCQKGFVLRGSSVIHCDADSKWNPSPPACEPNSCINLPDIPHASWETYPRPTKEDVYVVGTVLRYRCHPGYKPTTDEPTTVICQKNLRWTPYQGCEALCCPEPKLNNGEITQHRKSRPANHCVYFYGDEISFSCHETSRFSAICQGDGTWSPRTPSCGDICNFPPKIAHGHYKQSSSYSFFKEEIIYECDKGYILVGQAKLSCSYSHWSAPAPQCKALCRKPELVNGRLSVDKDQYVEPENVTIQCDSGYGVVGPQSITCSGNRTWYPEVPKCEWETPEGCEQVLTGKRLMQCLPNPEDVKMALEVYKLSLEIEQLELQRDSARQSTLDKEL", "sequence (P20851 18-252, chain 2 of 2, further chain)": "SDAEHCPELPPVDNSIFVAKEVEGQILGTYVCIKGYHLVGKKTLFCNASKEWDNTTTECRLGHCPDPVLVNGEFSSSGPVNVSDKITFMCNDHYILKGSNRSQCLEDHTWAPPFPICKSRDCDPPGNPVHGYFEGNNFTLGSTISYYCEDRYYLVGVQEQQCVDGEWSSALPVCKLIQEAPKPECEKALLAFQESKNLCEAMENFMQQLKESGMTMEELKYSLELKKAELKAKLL", "assay": "SEC; Superose 6 10/30, PBS, ambient temperature; 0.25 nmol C4BP with varying amounts of Protein H, pre-incubated 30 min at room temperature; area of the free Protein H peak fitted"}, "[4]": {"target": "Protein H (Streptococcus pyogenes (strain AP1))", "assay": "SEC; Superose 6 10/30; 5 nmol Protein H alone at 8°C and 28°C; column calibrated with high molecular weight markers; monomer to dimer"}}}
{"substance": "C4b-binding protein (C4BP), human, purified from plasma (from UniProt P04003 49-597; P20851 18-252) (complex)", "values": [{"measurement": "Kd", "setting": "[1]", "value": 180, "unit": "nM"}]}
{"substance": "Protein H on the surface of Streptococcus pyogenes AP1 (natural protein)", "values": [{"measurement": "aggregation of S. pyogenes AP1 grown overnight at 35°C, 37°C or 41°C (OD600 before against after vortexing); at 41°C all bacteria remained dispersed", "setting": "[2]", "value": 70, "unit": "%"}]}
{"substance": "Protein H (natural protein)", "values": [{"measurement": "stoichiometry N (Protein H monomers per C4BP)", "setting": "[3]", "value": 26}, {"measurement": "stoichiometry N", "setting": "[4]", "value": 2}]}
